Consider two molecules from patent US20140087995A1 (published 2014).

Numbered stars: 1 amine (or outer) side, 2 acyl side, 3 side chain; on linkers, the order of the positions; unused ones are H or OH. Bridge positions count the residues as written; N and C are the ends. * marks the point of attachment. C20 diacid = O=C(O)CCCCCCCCCCCCCCCCCCC(=O)*; γGlu = O=C(O)[C@H](CCC(=O)[*:2])N[*:1]

Test [1] addresses T1, human calcitonin receptor (human, UniProt P30988 25-474).
T1 construct: whole, on cells; also called hCTR; hCT
T1 sequence (looked up): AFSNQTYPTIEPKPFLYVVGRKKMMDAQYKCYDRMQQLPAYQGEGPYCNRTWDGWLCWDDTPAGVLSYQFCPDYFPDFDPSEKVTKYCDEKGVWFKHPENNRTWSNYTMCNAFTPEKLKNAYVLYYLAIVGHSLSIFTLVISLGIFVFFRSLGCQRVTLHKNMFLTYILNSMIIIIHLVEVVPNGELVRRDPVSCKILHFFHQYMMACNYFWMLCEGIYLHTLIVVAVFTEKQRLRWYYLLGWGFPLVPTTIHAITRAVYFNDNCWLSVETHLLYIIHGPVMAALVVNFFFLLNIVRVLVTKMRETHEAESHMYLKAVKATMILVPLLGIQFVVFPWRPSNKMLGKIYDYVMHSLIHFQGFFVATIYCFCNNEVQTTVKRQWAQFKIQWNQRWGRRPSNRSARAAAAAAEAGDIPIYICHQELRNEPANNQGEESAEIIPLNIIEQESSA
As to the kind of experiment: ratio of IC50 at hCTR to IC50 at the human amylin receptor (reference). An outline of the steps: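 IC₅₀ values were derived by one-site competition analysis of SPA counts. Cell membranes (35 ng/μL) with SPA beads were incubated with test compounds for 120 min at 25° C in Hepes buffer, pH 7.4, containing CaCl2, MgCl₂, OA and Tween20.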

Test [2] deals with T2, human amylin receptor (amylin 3(a) receptor: human calcitonin receptor plus RAMP-3) (human, UniProt P30988 25-474; O60896 24-148).
T2 construct: whole, on cells; the species of RAMP-3 is told only through the name 'human amylin receptor'; also called hAmylin-R; hAmylinR
T2 sequence (looked up) 1: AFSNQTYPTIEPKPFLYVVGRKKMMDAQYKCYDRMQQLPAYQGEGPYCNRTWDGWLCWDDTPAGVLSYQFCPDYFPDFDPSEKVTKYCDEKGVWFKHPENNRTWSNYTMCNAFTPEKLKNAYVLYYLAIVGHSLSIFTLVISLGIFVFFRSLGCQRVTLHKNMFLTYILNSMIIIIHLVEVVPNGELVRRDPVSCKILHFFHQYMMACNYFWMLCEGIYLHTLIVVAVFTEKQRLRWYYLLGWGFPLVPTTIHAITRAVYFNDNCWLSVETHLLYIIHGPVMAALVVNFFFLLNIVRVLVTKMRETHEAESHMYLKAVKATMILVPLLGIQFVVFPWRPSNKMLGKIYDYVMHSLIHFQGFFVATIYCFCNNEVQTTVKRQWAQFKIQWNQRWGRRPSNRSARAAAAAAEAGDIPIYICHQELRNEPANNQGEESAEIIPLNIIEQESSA
T2 sequence (looked up) 2: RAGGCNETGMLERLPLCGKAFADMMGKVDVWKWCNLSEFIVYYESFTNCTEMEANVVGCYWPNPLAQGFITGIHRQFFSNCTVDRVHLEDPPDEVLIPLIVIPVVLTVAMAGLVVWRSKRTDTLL
Put plainly: SPA competition binding, membranes with human amylin 3(a) receptor, displacement of 125I-rat amylin (Assay V). The protocol: The binding assay was performed using scintillation proximity assay (SPA) beads (RPNQ0001) from PerkinElmer and cell membranes from the Amylin 3(a)/CRE-luc cells (as described in Assay (II)) were used. Membranes were prepared in the following way; the cells were rinsed with PBS and incubated with Versene for approximately 5 min before harvesting. The cells were flushed with PBS and the cell-suspension was centrifuged for 5 min at 1000 rpm. Cells were homogenized (ultrathurrax) in a buffer containing 20 mM Na-HEPES and 10 mM EDTA (pH 7.4) and centrifuged at 20.000 rpm for 15 min. The resulting pellet was resuspended, homogenized and centrifuged (20.000 rpm, 15 min) in a buffer containing 20 mM Na-HEPES and 0.1 mM EDTA (pH 7.4, buffer 2). The resulting pellet was resuspended in buffer 2 and protein concentration was measured (BCA protein Assay, Pierce). The homogenate was kept cold during the whole procedure. The membranes were kept at −80° C. until use. The assay was performed in a 384 well Optiplate (PerkinElmer) in a total volume of 40 ul. Membranes were mixed with SPA beads. Final concentration of membranes 35 ng/μL final and SPA beads was 0.05 mg/well. Test-compounds were dissolved in DMSO and further diluted in assay buffer (50 mM Hepes, pH 7.4, 1 mM CaCl2, 5 mM MgCl₂, 0.1% OA and 0.02% Tween20). […] The final mixture was incubated with shaking at 400 rpm for 120 min at 25° C. prior to centrifugation (1500 rpm, 10 min). Samples were analyzed on TopCounter™ (Packard). The IC₅₀ was calculated using (one site binding competition analysis) GraphPad Prism5 as a measure of receptor affinity.
(Displacement assays read how much labelled ligand stays bound in the presence of the test substance.)

Test [3] deals with T1, human calcitonin receptor. Put plainly: SPA competition binding, membranes with human calcitonin receptor, displacement of 125I-calcitonin (Assay VII). Summed up:
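BHK hCTR membranes 35 ng/μL + SPA beads 0.05 mg/well; buffer 50 mM Hepes pH 7.4, 1 mM CaCl2, 5 mM MgCl₂, 0.1% OA, 0.02% Tween20. 120 min, 25° C., shaking. Scintillation count; IC50 by one-site binding competition.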

B1: N^α1-[(4S)-4-carboxy-4-(19-carboxynonadecanoylamino)butanoyl]-[Glu14,Arg17,Pro21,Pro27,His34]-h-amylin (peptide)
peptide: {C20 diacid-γGlu}-KCNTATCATQRLAEFLRHSSPNFGAIPSSTNVGHNTY-NH2
modifications: disulfide 2-7
SMILES: CC[C@H](C)[C@H](NC(=O)[C@H](C)NC(=O)CNC(=O)[C@H](Cc1ccccc1)NC(=O)[C@H](CC(N)=O)NC(=O)[C@@H]1CCCN1C(=O)[C@H](CO)NC(=O)[C@H](CO)NC(=O)[C@H](Cc1c[nH]cn1)NC(=O)[C@H](CCCNC(=N)N)NC(=O)[C@H](CC(C)C)NC(=O)[C@H](Cc1ccccc1)NC(=O)[C@H](CCC(=O)O)NC(=O)[C@H](C)NC(=O)[C@H](CC(C)C)NC(=O)[C@H](CCCNC(=N)N)NC(=O)[C@H](CCC(N)=O)NC(=O)[C@@H](NC(=O)[C@H](C)NC(=O)[C@@H]1CSSC[C@H](NC(=O)[C@H](CCCCN)NC(=O)CC[C@H](NC(=O)CCCCCCCCCCCCCCCCCCC(=O)O)C(=O)O)C(=O)N[C@@H](CC(N)=O)C(=O)N[C@@H]([C@@H](C)O)C(=O)N[C@@H](C)C(=O)N[C@@H]([C@@H](C)O)C(=O)N1)[C@@H](C)O)C(=O)N1CCC[C@H]1C(=O)N[C@@H](CO)C(=O)N[C@@H](CO)C(=O)N[C@H](C(=O)N[C@@H](CC(N)=O)C(=O)N[C@H](C(=O)NCC(=O)N[C@@H](Cc1c[nH]cn1)C(=O)N[C@@H](CC(N)=O)C(=O)N[C@H](C(=O)N[C@@H](Cc1ccc(O)cc1)C(N)=O)[C@@H](C)O)C(C)C)[C@@H](C)O
notes: also called compound 17
On to B1, for which the “Ratio hCT/hAmylin binding” value in test [1] was 12.5. Also, the IC50 in test [2] stood at 0.878 nM; in test [3], 10.9 nM.

B2: N^α1-[(4S)-4-carboxy-4-(19-carboxynonadecanoylamino)butanoyl]-[Glu14,Arg17,Pro21,Pro27,Pro34]-h-amylin (peptide)
peptide: {C20 diacid-γGlu}-KCNTATCATQRLAEFLRHSSPNFGAIPSSTNVGPNTY-NH2
modifications: disulfide 2-7
SMILES: CC[C@H](C)[C@H](NC(=O)[C@H](C)NC(=O)CNC(=O)[C@H](Cc1ccccc1)NC(=O)[C@H](CC(N)=O)NC(=O)[C@@H]1CCCN1C(=O)[C@H](CO)NC(=O)[C@H](CO)NC(=O)[C@H](Cc1c[nH]cn1)NC(=O)[C@H](CCCNC(=N)N)NC(=O)[C@H](CC(C)C)NC(=O)[C@H](Cc1ccccc1)NC(=O)[C@H](CCC(=O)O)NC(=O)[C@H](C)NC(=O)[C@H](CC(C)C)NC(=O)[C@H](CCCNC(=N)N)NC(=O)[C@H](CCC(N)=O)NC(=O)[C@@H](NC(=O)[C@H](C)NC(=O)[C@@H]1CSSC[C@H](NC(=O)[C@H](CCCCN)NC(=O)CC[C@H](NC(=O)CCCCCCCCCCCCCCCCCCC(=O)O)C(=O)O)C(=O)N[C@@H](CC(N)=O)C(=O)N[C@@H]([C@@H](C)O)C(=O)N[C@@H](C)C(=O)N[C@@H]([C@@H](C)O)C(=O)N1)[C@@H](C)O)C(=O)N1CCC[C@H]1C(=O)N[C@@H](CO)C(=O)N[C@@H](CO)C(=O)N[C@H](C(=O)N[C@@H](CC(N)=O)C(=O)N[C@H](C(=O)NCC(=O)N1CCC[C@H]1C(=O)N[C@@H](CC(N)=O)C(=O)N[C@H](C(=O)N[C@@H](Cc1ccc(O)cc1)C(N)=O)[C@@H](C)O)C(C)C)[C@@H](C)O
notes: also called compound 32
Turning to B2, the “Ratio hCT/hAmylin binding” value in test [1] came to 10.9. Besides, the IC50 was found to be 0.1 nM in test [2] and 1.09 nM in test [3].

The term IC50 denotes the concentration at which inhibition is half-maximal.
